The source of these data is patent US20130316374A1, “BREAST CANCER DIAGNOSTICS” (IMBA - INSTITUT FUR MOLEKULARE BIOTECHNOLOGIE GMBH, priority 2010, published 2013).

One assay has as its system mammary epithelial cells. Briefly: Epithelial proliferation in mammary glands, in situ Ki67 immunostaining. It is filed as in vivo, mouse. The procedure:
a, Epithelial proliferation in mammary glands of control littermates and RANK^Δmam females 3 days after sham treatment and MPA implantation. Proliferation was determined by in situ Ki67 immunostaining. b,c, Marked increase of the stem cell-enriched CD24^+CD49^high population (MaSC) in MPA-treated mammary glands in control but not in RANK^Δmam mammary glands. b, Representative FACS profiles showing CD24 and CD49 expression of lineage negative (CD31^− (endothelial cells) CD45^− (hematopoietic cells) […] (erythroid cells)) of mammary MaSCs from MPA- or sham-treated 8-week old virgin females. c, Quantification of MaSC-enriched CD24^+CD49^high population from mammary glands of MPA- or sham-treated virgin RANK^Δmam and littermate control females. For all MaSCs experiments mice were treated with MPA for 3 days. n=4 per group+/−sem. *P<0.05; ***P<0.001 (Student's t-test).
At least 1000 mammary gland epithelial cells were counted per mouse. n=3 mice per genotype. **P<0.005; ***P<0.001 (Student's t-test). b, Quantification of in situ Ki67 immunostained cells per acinus from mammary glands of control littermate and RANK^Δmam females on day 3 after MPA s.c. implantation. […] At least 1000 cells were counted per mammary gland. n=3 per genotype. In b, and c, data are shown as percentage of acini/ducts with low (<20% of epithelial cells are Ki67^+), medium (20-80% of epithelial cells are Ki67^+) and high (>80% of epithelial cells are Ki67^+) numbers of proliferating cells+/−sem. ***P<0.001; *P<0.03 (Student's t-test). d, Epithelial proliferation in mammary glands of control littermates and RANK^Δmam females 1 day after i.p. injection of PBS or RANKL (1 μg). Proliferation was determined in situ Ki67 immunostaining. Magnifications ×40. e, Quantification of epithelial proliferation 1 day after i.p. injection of PBS or RANKL (1 μg). Mean percentages of Ki67 positive cells+/−sem are shown. *P<0.03; n=5 (Student's t-test).
For histological analysis, 5 μm sections were cut and stained with hematoxylin and eosin (H&E). Whole-mount staining of mammary glands was performed as described. For immunoperoxidase staining paraffin-embedded sections were […] and antigenic epitopes exposed using a 10 mM citrate buffer or microwaving. Sections were incubated with antibodies to cytokeratine 5, cytokeratine 14, E-cadherin, anti-Ki67 (Novocastra) and anti-active Caspase 3 (Cell Signaling) and visualized using peroxidase-conjugated secondary antibodies. Histomorphometric indices (proliferation and apoptosis) were calculated as the number of positive epithelial cells divided by the total number of epithelial cells, with no fewer than 1000 nuclei for Ki67 stainings and no fewer than 5000 cells for active Caspase 3 staining counted per section.
Recently it has been reported that endogenous progesterone affects the numbers of Lin-CD24+CD49f^hi stem cells during pregnancy^15 and the estrous cycle^16. In both studies, the RANKL/RANK system was implicated based on in vivo whole body Ab blocking studies and RT-PCR expression, however, it was not known whether this is a direct effect of RANKL-RANK in mammary epithelial cells rather than a secondary effect. Therefore it was assayed whether progestins such as MPA can also expand Lin-CD24+CD49f^hi cells.

The subject of assay [1] is SKBR3 breast cancer cells. Briefly: Growth curve of SKBR3 breast cancer cells. It is filed as cell-based, human. As to conditions: RANKL (1 μg/ml), 3 days. On the procedure: a, Western blotting for phosphorylated (P) p65 NFκB, total p65 NFκB, phosphorylated (P) IκBα, total IκBα, phosphorylated (P) ERK1/2, total ERK1/2, phosphorylated (P) p38-MAPK, and p38-MAPK in human SKBR3 breast cancer cells in response to RANKL stimulation (1 μg/ml). Data are representative of 3 experiments. b, Growth curve of SKBR3 breast cancer cells cultured in normal growth medium (control, DMEM supplemented with 10% FCS) or in the presence of RANKL (1 μg/ml). Cell numbers were determined by counting live cells (trypan blue-exclusion) over 3 days. c, Onset of palpable mammary tumors in NFATc1^Δmam (n=10) and age matched littermate control (n=16) females treated with MPA pellets and DMBA. Data are shown as percentage of tumor free mice after the last DMBA challenge. No significant difference was found. d, Quantification of NFATc1 mRNA expression in purified mammary epithelial cells (MECs) and MPA-driven mammary tumors from NFATc1^Δmam and littermate control females. mRNA was determined by qRT-PCR. Data are shown as fold change compared to control (+/−sem). n=5 Per group. *P<0.05 (Student's t-test).

Assay [2] relates to primary mouse mammary epithelial cells. The experiment in a line: DNA damage responses (cell cycle arrest, apoptosis) in primary mouse mammary epithelial cells. It counts as cell-based. The note with it: RANKL 1 μg/ml. The procedure:
a, Western Blot analysis for γH2AX, phosphorylated (P) Chk1, total Chk1, p53 and β-actin in isolated primary mouse mammary gland epithelial cells in response to γ-irradiation (2 Gray) in the presence (1 μg/ml) or absence of RANKL stimulation. b,c, FACS analysis of propidium iodide (PI) stained b, mammary epithelial cells and c, SKBR3 human breast cancer cells after γ-irradiation (2 Gray) in the absence or presence (1 μg/ml) of RANKL. Data are representative of at least 3 experiments. Apoptotic cells with a DNA content <2n appear in the sub-G1 region. Percent of cells in sub-G1 (M1), G1-phase (M2), S/G2/M-phase (M3) as well as polyploid cells with a DNA content >4n are given for the indicated time points.
a,b, FACS analysis of a, mammary epithelial cells and b, SKBR3 human breast cancer cells incubated with the genotoxic agent doxorubicin (Dox, 1 μM) in the presence (1 μg/ml) or absence of RANKL. Data are representative of at least 3 experiments. Percent of cells in sub-G1 (M1), G1-phase (M2), S/G2/M-phase (M3) as well as polyploid cells with a DNA content >4n are given for 24 and 36 hours after doxorubicin treatment. c, mRNA expression of pro-apoptotic genes Bim, Puma, and Noxa 6 hours after γ-irradiation (2 Gray) in the presence (1 μg/ml) or absence of RANKL stimulation. Data are shown as fold change compared to control (+/−sem). n=3). *P<0.05; **P<0.005 (Student's t-test).
For measurement of cell cycle arrest and apoptosis primary mouse mammary epithelial cells and SKBR3 human breast cancer cells were seeded at a cell-density of 100000 cells/well in a 6-well plate and allowed to grow for 24 hours. Cells where then treated with doxorubicin (1 μM) or γ-irradiation (2 Gray) in the absence or presence of recombinant RANKL (1 μg/ml). Cell cycle arrest and numbers of dead cells were determined using propidium iodine staining. To determine in vivo mammary gland epithelial cell death, control and RANK^Δmam littermate females were γ-irradiated with a total dose of 5 Gray (Gy). Six hours later, mammary glands were isolated and immunostained for active Caspase 3 (Cell Signaling) indicative of apoptosis.

In the case of `CC(=O)O[C@]1(C(C)=O)CC[C@H]2[C@@H]3C[C@H](C)C4=CC(=O)CC[C@]4(C)[C@H]3CC[C@@]21C` [MPA, medroxyprogesterone acetate], the “MPA-induced proliferation of mammary epithelial cells” value with mammary epithelial cells (RANK^Δmam females) is “significantly reduced”. Besides, in the assay with mammary epithelial cells (RANK^Δmam females, day 3 after MPA s.c. implantation), the “acini with very low proliferation rates (Ki67)” value was “more than 60%”. In addition, in the assay with mammary epithelial cells (control females, day 3 after MPA s.c. implantation), the “acini with signs of medium to high proliferation (Ki67)” value was about 80%. Moreover, the “proliferation of mammary epithelial cells” value in the assay on mammary epithelial cells (wild type population, MPA treatment) was “triggers massive proliferation of mammary epithelial cells”.

B1: RANKL: Receptor Activator of NF-κB Ligand; recombinant murine RANKL used for stimulation (protein, UniProt O35235 139-316, looked up)
Tumor necrosis factor ligand …: FSGAPAMMEGSWLDVAQRGKPEAQPFAHLTINAASIPSGSHKVTLSSWYHDRGWAKISNMTLSNGKLRVNQDGFYYLYANICFRHHETSGSVPTDYLQLMVYVVKTSIKIPSSHNLMKGGSTKNWSGNSEFHFYSINVGGFFKLRAGEEISIQVSNPSLLDPDQDATYFGAFKVQDID
Take B1: the “proliferation of mammary gland epithelial cells” value in the assay on mammary epithelial cells (nulliparous females, 1 day after i.p. injection of RANKL (1 μg)) is reported as “triggered proliferation of mammary gland epithelial cells”. Also, the “proliferation of SKBR3 cells” value in assay [1] is given as “induced”. Besides, the “γ-irradiation-induced upregulation of Bim, Puma, and Noxa mRNA” value in assay [2] (6 hours after γ-irradiation (2 Gray)) is recorded as “did not occur”. In assay [2] (doxorubicin (1 μM)), the “cell death after DNA damage” value is given as “marked protection from cell death” and the “early cell cycle arrest after DNA damage” value was “did not alter”. For the same molecule, in assay [2] (γ-irradiation (2 Gray)), the “cell death after DNA damage” value is “marked protection from cell death”; the “early cell cycle arrest after DNA damage” value is given as “did not alter”; the “induction of γH2AX and p53 or activation of Chk1” value is reported as “did not alter”.
